# Literature values, collected in PMC7615502.
# Assays:
# IL-2Rα (Homo sapiens) = IL-2Rα (Homo sapiens) (UniProt P01589)
# IL-2Rβγ (Homo sapiens) = IL-2Rβγ (Homo sapiens) (UniProt P14784)
# Sequence of UniProt P14784 (P14784 27-240, chain 1 of 2): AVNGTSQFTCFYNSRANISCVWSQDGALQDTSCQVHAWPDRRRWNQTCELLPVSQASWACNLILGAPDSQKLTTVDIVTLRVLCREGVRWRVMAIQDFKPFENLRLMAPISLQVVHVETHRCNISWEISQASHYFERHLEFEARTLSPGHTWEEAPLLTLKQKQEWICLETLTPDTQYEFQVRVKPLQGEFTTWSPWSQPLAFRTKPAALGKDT
# Sequence of UniProt P14784 (P31785 23-262, chain 2 of 2, further chain): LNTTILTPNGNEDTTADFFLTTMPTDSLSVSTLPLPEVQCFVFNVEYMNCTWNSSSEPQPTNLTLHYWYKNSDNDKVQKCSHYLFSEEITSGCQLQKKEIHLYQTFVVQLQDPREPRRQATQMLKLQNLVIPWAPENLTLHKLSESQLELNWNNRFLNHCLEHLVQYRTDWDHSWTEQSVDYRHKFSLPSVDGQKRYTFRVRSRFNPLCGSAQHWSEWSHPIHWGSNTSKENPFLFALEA
# Sequence of UniProt P01589 (P01589 22-240): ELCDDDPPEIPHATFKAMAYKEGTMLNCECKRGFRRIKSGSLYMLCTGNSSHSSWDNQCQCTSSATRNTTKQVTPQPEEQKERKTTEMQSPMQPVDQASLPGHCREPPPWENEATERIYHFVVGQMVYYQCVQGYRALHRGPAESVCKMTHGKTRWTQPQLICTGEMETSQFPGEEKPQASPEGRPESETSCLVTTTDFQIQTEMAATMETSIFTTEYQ
substance,measurement,setting,value
IL-2 (from UniProt P60568),Kd,IL-2Rα (Homo sapiens),10 nM
same,Kd,IL-2Rβγ (Homo sapiens),1 nM
